{"source": "patent US8241627B2", "about": "“Modified polypeptides stabilized in a desired conformation and methods for producing same” (The Center for Blood Research, Inc., priority 2000, dated 2012)", "key": {"murine ICAM-1": {"target": "murine ICAM-1 (Mus musculus, UniProt P13597)", "sequence (P13597 28-537)": "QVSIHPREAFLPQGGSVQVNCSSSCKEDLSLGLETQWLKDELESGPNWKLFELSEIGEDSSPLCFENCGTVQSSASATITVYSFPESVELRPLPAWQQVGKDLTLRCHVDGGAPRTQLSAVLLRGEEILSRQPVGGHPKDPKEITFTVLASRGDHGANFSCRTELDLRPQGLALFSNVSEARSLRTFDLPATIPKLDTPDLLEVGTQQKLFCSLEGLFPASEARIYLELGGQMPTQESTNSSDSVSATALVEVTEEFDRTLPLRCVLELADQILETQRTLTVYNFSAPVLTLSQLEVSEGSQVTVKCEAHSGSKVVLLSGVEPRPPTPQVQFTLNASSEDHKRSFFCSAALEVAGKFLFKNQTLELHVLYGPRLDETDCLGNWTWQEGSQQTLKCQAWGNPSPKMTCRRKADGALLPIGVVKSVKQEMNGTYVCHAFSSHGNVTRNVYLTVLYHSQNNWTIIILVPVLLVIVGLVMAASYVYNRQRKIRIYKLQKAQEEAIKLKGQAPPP", "assay": "Affinity of open I-domain for murine ICAM-1", "type": "binding", "description": "(§1) Briefly, recombinant mutant αL I-domain stabilized in the open conformation (K287C/K294C), or recombinant wild-type αL I-domain from amino acid residue G128 to Y307, were cloned into pET11b (Novagen) and expressed in E. coli induced with 1 mM IPTG for 4 hours. The recombinant proteins were purified from inclusion bodies by solubilization of inclusion bodies in 6M guanidine HCl and were refolded by dilution in the presence of 0.1 mM Cu^2+/phenanthrolin to enhance formation of disulfide bonds. Protein was concentrated by ammonium sulfate precipitation, dialyzed, and purified over a monoQ ion-exchange column. […] The recombinant proteins were then purified by gel filtration and concentrated by Centriprep. For BIAcore™ analysis, recombinant ICAM-1, ICAM-2 and ICAM-3 Fc chimeras were immobilized on the BIAcore™ sensor chip by an amine-coupling method. Recombinant αL I-domains were flowed in, and BIAcore™ assays were performed with Tris-buffered saline supplemented with 1 mM MgCl2 or 2 mM EDTA, at a flow rate of 10 μl/minute at 25° C.\nTo analyze binding kinetics, different concentrations of open I-domain were tested for ligand binding (FIG. 9, Panels B, D and F)."}, "ICAM-3": {"target": "T1, ICAM-3 (Homo sapiens, UniProt P32942)", "T1 sequence (P32942 30-485 limits assumed)": "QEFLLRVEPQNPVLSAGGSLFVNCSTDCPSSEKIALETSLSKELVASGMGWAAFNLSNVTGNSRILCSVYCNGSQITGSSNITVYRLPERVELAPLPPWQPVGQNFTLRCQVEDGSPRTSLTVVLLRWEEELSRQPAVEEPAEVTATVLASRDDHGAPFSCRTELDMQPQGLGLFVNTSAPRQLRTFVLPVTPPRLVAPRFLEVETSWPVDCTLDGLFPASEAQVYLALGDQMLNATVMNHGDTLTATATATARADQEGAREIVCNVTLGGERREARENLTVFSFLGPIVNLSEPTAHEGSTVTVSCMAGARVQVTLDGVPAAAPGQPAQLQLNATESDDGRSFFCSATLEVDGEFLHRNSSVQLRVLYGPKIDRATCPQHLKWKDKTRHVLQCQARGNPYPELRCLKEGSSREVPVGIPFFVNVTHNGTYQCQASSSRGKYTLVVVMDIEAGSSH", "assay": "BIAcore binding of soluble αL I-domains to ICAM-3", "settings": "1:1 interaction model", "description": "as §1"}, "[1]": {"system": "T-lymphocytes in peripheral lymph node high endothelial venules", "assay": "Intravital microscopy of lymphocyte behaviour in peripheral lymph node high endothelial venules", "type": "in vivo", "settings": "mouse", "description": "Moreover, the ability of the open I-domain mutants to inhibit LFA-1 function in vivo was tested by visualizing microcirculation in the peripheral lymph node (LN) with intravital microscopy. Briefly, a small bolus (20-50 µl) of LN cell suspensions from […] mice were retrogradely injected through a femoral artery catheter and visualized in the subiliac LN by fluorescent epi-illumination from a video-triggered xenon arc stroboscope. After recording control […] cell behavior in the absence of 1-domain, the mouse was pretreated by intra-arterial injection of 1-domain (10 µg/g of weight) 5 minutes before T^GFP cell injection. All scenes were recorded on videotape and off-line analysis was done. The rolling fraction was calculated as percentage of rolling cells amount the total number of TGFβ cells that entered a venule. The sticking (firm adhesion) fraction was determined as the percentage of T^GFP cells becoming firmly adherent for >20 seconds in the number of T^GFP cells that rolled in a venule. Results were semi-quantitatively scored as follows: −: 0%, .+−.: 0-5%, +: 5-20%, ++: 20-40%, +++: 40-60%, ++++: 60-80%, +++++:80-100%."}}}
{"molecule": "K287C/K294C: human αL (LFA-1) I-domain with K287 and K294 replaced by cysteines; high affinity locked open; tested in intact LFA-1, cell-surface and soluble forms (protein, human αL (LFA-1) I-domain with K287 and K294 replaced by cysteines; tested in intact LFA-1, cell-surface and soluble forms) GNVDLVFLFDGSMSLQPDEFQKILDFMKDVMKKLSNTSYQFAAVQFSTSYKTEFDFSDYVKRKDPDALLKHVKHMLLLTNTFGAINYVATEVFREELGARPDATKVLIIITDGEATDSGNIDAAKDIIRYIIGIGKHFQTKESQETLHKFASKPASEFVCILDTFECLKDLFTELQKKIY", "values": [{"measurement": "affinity for murine ICAM-1", "setting": "murine ICAM-1", "result": "nanomolar range"}, {"measurement": "Koff, open I-domain binding to ICAM-3", "setting": "ICAM-3", "result": 0.0749, "unit": "s⁻¹"}, {"measurement": "Kon, open I-domain binding to ICAM-3", "setting": "ICAM-3", "result": 19000, "unit": "M⁻¹ s⁻¹"}, {"measurement": "firm adhesion of T-lymphocytes to high endothelial venules", "setting": "[1]; injection of I-domain", "result": "effectively blocked"}, {"measurement": "lymphocyte rolling mediated by L-selectin and PNAd", "setting": "[1]; injection of I-domain", "result": "not compromised"}, {"measurement": "Fraction transmigration", "setting": "[1]; intra-arterial I-domain 10 μg/g", "result": "− (−: 0%)"}, {"measurement": "Fraction Rolling", "setting": "[1]; intra-arterial I-domain 10 μg/g 5 minutes before T-GFP cell injection", "result": "++++ (++++: 60-80%)"}, {"measurement": "Fraction firm adhesion", "setting": "[1]; intra-arterial I-domain 10 μg/g, adherent >20 seconds", "result": "± (.+−.: 0-5%)"}]}
